For one data set, the system named is PC3pip tumors. The experiment in a line: Immunofluorescent detection of apoptosis (caspase-3, H&E). Format: in vivo, mice. The settings on record: single dose, four days after the treatment. An excerpt:
Animals bearing PC3pip tumors were divided into 7 groups: (1) mice receiving PBS; (2) mice receiving 100 nmol/kg PSMA-1-MMAE-IR700 with PDT; (3) mice receiving equal doses of PSMA-1-MMAE-IR700 to group 2, but not receiving PDT; (4) Mice receiving equal doses of PSMA-1-IR700 to group 2 with PDT treatment; (5) Mice receiving equal doses of PSMA-1-IR700 to group 2 without PDT; (6) mice receiving equal dose of PSMA-1-IR700 to group 2+free MMAE with PDT (MMAE normalized to that delivered by PSMA-1-MMAE-IR700); and (7) mice receiving equal dose of PSMA-1-IR700 to group 2+free MMAE without PDT. Animals were treated with one single dose and were sacrificed at 4-day post treatment. Tumors were snap-frozen in OCT, cut into 10 μm thick sections and fixed on slides. Induction of apoptosis by the treatment was determined by rabbit polyclonal anti-Caspase-3 antibody (Abcam, Cambridge, UK). A goat anti-rabbit polyclonal antibody labeled by Alexa Fluor-594 was used as secondary antibody (Abcam, Cambridge, UK). The presence of apoptosis was determined by fluorescence images under Leica DM4000B fluorescence microscope at 10×. H&E staining of tumor tissues was performed in adjacent sections to check the histology of the tumors. Experiments were repeated in 5 mice.

The next data set deals with T1, human liver cathespin (Homo sapiens, UniProt P07858).
T1 construct: purchased Anthens Research and Technology, Anthens, GA; host or cells: human liver (tissue-derived enzyme)
The data set is described as follows: Cathepsin cleavage studies, Example 2. Format: in vitro ADME. The settings on record: 37° C., HPLC. As to the method: Enzymatic cleavage study of PSMA-1-MMAE-IR700 was performed as previously described. PSMA-1-MMAE-IR700 was incubated with activated human liver cathespin (Anthens Research and Technology, Anthens, GA) at 37° C. At different incubation time, 40 μL of the solution was placed into tubes loaded with 1 μL of 1 mM E64 protease inhibitor. The mixture was vortexed and then stored at −80° C. for future HPLC analysis. Studies were performed in triplicate. In vitro cellular uptake studies cells were plated on coverslips at about 60-70% confluency. Twenty-four hours later, cells were incubated with 50 nM of PSMA-1-MMAE-IR700. After incubation for various times (15 min, 30 min, 1 h and 4 h), cells were washed twice with cold RPMI 1640, fixed with 4% paraformaldehyde and counterstained with 4′,6-diamidino-2-phenylindole (DAPI). Images were taken using a Leica DM4000B fluorescence microscope (Leica Biosystems, Buffalo Gove, IL) at 40×. Blocking experiments were performed by co-incubation of cells with 50 nM of PSMA-1-MMAE-IR700 and 100× of PSMA-1 ligand. Studies were performed in triplicate.

Another data set relates to PC3pip and PC3flu tumors. The data set is described as follows: In vivo fluorescence imaging studies, heterotopic tumors. Also on record: species or system mice. As to the method: Animal experiments were approved by the animal care and use committee at Case Western Reserve University (IACUC #150033). Six to eight-week-old male Balb/c athymic nude mice (Jackson Laboratory, Bar Harbor, ME) were implanted subcutaneously with 1×10^6 of PC3pip (right flank) and PC3flu (left flank) cells in 100 μl of matrigel. Animals were ready to use when tumor diameter reached 10 mm, about two weeks. Animals received 100 nmol/kg of PSMA-1-MMAE-IR700 through tail vein injection and were imaged at different time points by Maestro In vivo Image System (Perkin Elmer, Waltham, MI) using the yellow filter set (excitation 575-605 nm, emission 645 nm longpass). During imaging, mice were anesthetized by isoflurane. At 48 h post injection, mice were sacrificed and tissues such as heart, lung, liver, kidneys, stomach, tumors were harvested for ex vivo imaging. Multispectral images were unmixed into their component spectra and average fluorescence signals were quantified by creating regions of interest. Experiments were performed in 5 mice.

Data set [1] concerns orthotopic PC3pipGFP tumors. The experiment in a line: Detection of orthotopic tumor and lymph node metastases. Format: in vivo, mice. The settings on record: 100 nmol/kg, 1 h post injection. As to the method: Orthotopic PC3pipGFP prostate cancer models were established as previously described using green fluorescence protein (GFP) transfected PC3pip cells. Mice bearing orthotopic PC3pipGFP tumors were injected with 100 nmol/kg of PSMA-1-MMAE-IR700. Mice were imaged at 1 h post injection by Maestro using the yellow filter set for PSMA-1-MMAE-IR700 and blue filter set for GFP (excitation 445-490 nm, emission 515 nm longpass). Mice were then euthanized and primary tumor was removed to expose lymph nodes. The mice were imaged again. Resected primary tumor and lymph nodes were snap-frozen in optimal cutting temperature (OCT) compound and sectioned. The slides were subjected to hematoxylin and eosin (H&E) staining, and adjacent set of slides were counter stained with DAPI and observed under Leica DM4000B fluorescence microscope at 10× to visualize DAPI, GFP and PSMA-1-MMAE-IR700. Experiments were repeated in three mice.

Data set [2] relates to PSMA-negative PC3flu cells. The data set is described as follows: In vitro cytotoxicity studies (CellTiter 96) with or without 690 nm light, PC3flu. Format: cell-based, human. The protocol:
PC3pip and PC3flu cells were plated at 3,000 cells/well in 96-well plates. Twenty-four hours later, drugs (PSMA-1-MMAE-IR700 or PSMA-1-IR700) of different concentrations were added. After incubation at 37° C. in the dark for 24 h, cell viability was determined by CellTiter 96© aqueous one solution cell proliferation assay using absorbance at 490 nm (Promega Biotech, Madison, […]). The concentration required to inhibit 50% of cell growth (IC50) was determined by GraphPad Prism 3.0. To test the cytotoxicity of PSMA-1-MMAE-TR700 with light irradiation, drugs at a final concentration of 5 nM were added to cells and incubated in the dark for 24 h. Cells were then washed 3 times with RMPI 1640 and then irradiated with 690 nm light (L690-66-60, Marubeni America Co, New York, NY). Cells were incubated in the dark for another 24 h. Cell viability was then determined by CellTiter 96© aqueous one solution cell proliferation assay (Promega Biotech, Madison, […]). The coefficient drug interaction (CDI) was calculated as follows: CDI=AB/(A×B), where AB is the ratio of the absorbance of combination treatment groups (PSMA-1-MMAE-IR700 with light irradiation) to the absorbance of control groups; A or B is the absorbance of single treatment group (PSMA-1-MMAE-IR700 without light or PSMA-1-IR700 with light irradiation) to the absorbance of control groups. […]

Setting [3] is: 4 h post injection, 100 nmol/kg.
Where [4] appears, read: 48 h post injection, 100 nmol/kg.

The structures appear in SMILES notation.

Regarding `CC[C@H](C)[C@@H]([C@@H](CC(=O)N1CCC[C@H]1[C@H](OC)[C@@H](C)C(=O)N[C@H](C)[C@@H](O)c1ccccc1)OC)N(C)C(=O)[C@@H](NC(=O)[C@H](C(C)C)N(C)C(=O)OCc1ccc(NC(=O)[C@H](CCCNC(N)=O)NC(=O)[C@@H](NC(=O)CCCCCN2C(=O)CC(SC[C@H](NC(=O)[C@H](CCC(=O)O)NC(=O)[C@H](CCC(=O)O)NC(=O)[C@H](CCC(=O)O)NC(=O)CCCCCNC(=O)[C@H]3CC[C@H](CNC(=O)CC[C@H](NC(=O)N[C@@H](CCC(=O)O)C(=O)O)C(=O)O)CC3)C(=O)NCCCCCC(=O)N[C@@H](CCCCNC(=O)CCCCCNC(=O)OCCCOc3cccc4c5n6c(c34)=NC3=NC(=Nc4c7ccccc7c(n4[Si]6(O[Si](C)(C)CCC[N+](CCCS(=O)(=O)[O-])(CCCS(=O)(=O)O)CCCS(=O)(=O)O)O[Si](C)(C)CCC[N+](CCCS(=O)(=O)[O-])(CCCS(=O)(=O)O)CCCS(=O)(=O)O)N=C4N=C(N=5)c5ccccc54)c4ccccc43)C(N)=O)C2=O)C(C)C)cc1)C(C)C` (stereo partly shown) [PSMA-1-MMAE-IR700], the “apoptosis / necrotic damage in tumors, with PDT” value with PC3pip tumors is “most aggressive necrotic damage and apoptosis”. The “degradation in the presence of cathepsin” value on human liver cathespin is listed as “degraded rapidly”. Besides, the “time to reach peak uptake in PC3pip tumors” value in the data set on PC3pip and PC3flu tumors (100 nmol/kg i.v.) amounted to 1 h. In addition, in the data set with PC3pip and PC3flu tumors (4 h post injection), the “fluorescence signal PC3pip versus PC3flu tumor” value amounted to 3.8 fold. Besides, in the data set on PC3pip and PC3flu tumors (setting [3]), the “fluorescence signal in PC3flu tumor” value stood at 5.2±1.5 counts and the “fluorescence signal in PC3pip tumor” value is 19.6±4.4 counts. Besides, the “fluorescence signal PC3pip versus PC3flu tumor” value with PC3pip and PC3flu tumors (48 h post injection) is 2.9 fold. For the same molecule, in the data set on PC3pip and PC3flu tumors (setting [4]), the “fluorescence signal in PC3flu tumors” value is 3.3±1.3 counts and the “fluorescence signal in PC3pip tumors” value stood at 9.6±2.1 counts. The “fluorescent signal in PC3pip tumor versus kidneys, liver and other organs” value in the data set with PC3pip and PC3flu tumors (ex vivo, 48 h post injection) is given as “more than 3 fold”. For the same molecule, in data set [1], the “fluorescence signal in primary tumor and lymph node histology” value is recorded as “only observed in cancer tissues”. In addition, in data set [2] (5 nM, with or without light), the “cell killing in PC3flu cells” value is recorded as “no effective cell killing”. Further, in data set [2] (24 h in the dark, no light), the “IC50 dark cytotoxicity, PC3flu cells” value is “no IC50 value was obtained”.

These data come from patent publication US20250332265A1, “PSMA TARGETED CONJUGATE COMPOUNDS AND USES THEREOF” (priority 2021, published 2025).
